Test results from patent publication CN111662385A.

Target: human GPC3 recombinant protein (human) (UniProt P51654)
Test: BLI (ForteBio), antibody 5 ug/ml on anti-human IgG Fc sensor, GPC3 62.5-1000 nM

Kd: 1.74 nM | koff: 0.00024 s⁻¹ | kon: 141000 M⁻¹ s⁻¹
Substance: hGC33(Codrituzumab) (antibody)
